Reference: patent US20220143140A1, “ANTI-CD6 ANTIBODY COMPOSITIONS AND METHODS FOR TREATING LUPUS” (Equillium, Inc., priority 2019, published 2022)

Test system: subjects with active lupus nephritis
Experiment: Clinical trial: urinary soluble CD6 and soluble ALCAM before and after EQ001
Type: in vivo, human
Method: 30 ml of urine is collected from a patient (or control individual) and treated with a protease inhibitor cocktail tablet on ice (MiliporeSigma, Burlington, Mass., USA) according to manufacturer's instructions. The sample is centrifuged at 10,000×g for 1 min or 5,000×g for 2 min, and the urine is removed from any pellet, aliquoted, and quick frozen in a dry ice/methanol bath and stored at −80° C. until use.
Several suitable ELISA kits are available commercially and are suitable for use in detecting soluble ALCAM and soluble CD6. For example, human ALCAM DuoSet ELISA (R&D Systems, Minneapolis, Minn.) is utilized according to the manufacturer's instructions to measure soluble ALCAM in a urine sample, and quantification is performed by generating a standard curve. Human CD6 ELISA kit (Sandwich ELISA)(LifeSpan BioSciences, Inc, Seattle, Wash.) is utilized according to the manufacturer's instructions to measure soluble CD6 in a urine sample, and quantification is performed by generating a standard curve.
In order to determine whether high urinary levels of soluble CD6 and soluble ALCAM can be used as a biomarker for sensitivity to treatment with EQ001, a clinical trial is performed in which concentrations of these markers are analyzed in the urine of subjects with active lupus nephritis before and after treatment with EQ001.
Urine samples are collected from the subjects biweekly for 2-3 months to establish individual baseline urinary soluble CD6 and soluble ALCAM concentrations. Treatment is initiated after at least five baseline measurements are obtained. Subjects receive EQ001 or vehicle administered intravenously every two weeks for a total of 5 doses, and a urine sample is collected 3 days after initial dosing, and twice weekly thereafter over the course of the study, which continues for 20 weeks post-initial treatment.
As described above, immediately after collection, samples are treated, aliquoted, and frozen in accordance with the above method, and upon the completion of the study, samples are tested by ELISA.

[1] = Cohort 4, active lupus nephritis, iv every two weeks, 5 doses, ELISA

B1: EQ001: itolizumab, humanized anti-CD6 antibody, produced in CHO cells; VH/VK SEQ ID NOS: 1 and 2 (antibody, V domains shown)
VH: EVQLVESGGGLVKPGGSLKLSCAASGFKFSRYAMSWVRQAPGKRLEWVATISSGGSYIYYPDSVKGRFTISRDNVKNTLYLQMSSLRSEDTAMYYCARRDYDLDYFDSWGQGTLVTVSS
VL: DIQMTQSPSSLSASVGDRVTITCKASRDIRSYLTWYQQKPGKAPKTLIYYATSLADGVPSRFSGSGSGQDYSLTISSLESDDTATYYCLQHGESPFTLGSGTKLEIK
modifications: Made in Lab - synthesized VH amino acid sequence; Made in Lab - synthesized VK amino acid sequence
urinary soluble ALCAM levels [1]: significant decreases | urinary soluble CD6 levels [1]: significant decreases | response to treatment by basal soluble CD6 and soluble ALCAM (subjects with the highest basal levels): respond most dramatically
